This passage reports EC50 of CD69 expression of TCR-transduced cells after co-incubation with target cells loaded with graded peptide concentrations, binding result and EC50 of peptide results from EP4647441A1 (dated 2025).

In test [1] the target is HLA-A*11:01 loaded with KRAS-G12D peptide … (human). As to the kind of experiment: cell-based or functional assay.
Test [2] addresses HLA-A*11:01 loaded with KRAS-G12V peptide … (human). As to the kind of experiment: cell-based or functional assay.
The target of test [3] is T1, KRAS G12A peptide on HLA-A*11:01 (human).
T1 peptide: VVVGAAGVGK
The experiment in a line: killing.

In test [4] the target is T2, KRAS G12C peptide on HLA-A*11:01 (human).
T2 peptide: VVVGACGVGK
As to the kind of experiment: killing.

The target of test [5] is T3, KRAS G12S peptide on HLA-A*11:01 (human).
T3 peptide: VVVGASGVGK
The experiment in a line: killing.

The target of test [6] is T4, KRAS G12D peptide on HLA-A*11:01 (human).
T4 peptide: VVVGADGVGK
The experiment in a line: CD69 by flow cytometry; TCR1-transduced Jurkat cells with K562-A*11:01 loaded with peptide at 10^-11 to 10^-6 M; full-length, on cells.

Test [7] addresses T5, KRAS G12V peptide on HLA-A*11:01 (human).
T5 peptide: VVVGAVGVGK
The description is as above.

B1: HLA-A*11:01/KRAS G12V-specific TCR1 (TCR)
TCR alpha: KQEVTQIPAALSVPEGENLVLNCSFTDSAIYNLQWFRQDPGKGLTSLLLIQSSQREQTSGRLNASLDKSSGRSTLYIAASQPGDSATYLCAVNSYSGAGSYQLTFGKGTKLSVIPNIQNPDPAVYQLRDSKSSDKSVCLFTDFDSQTNVSQSKDSDVYITDKTVLDMRSMDFKSNSAVAWSNKSDFACANAFNNSIIPEDTFFPSPESSCDVKLVEKSFETDTNLNFQNLSVIGFRILLLKVAGFNLLMTLRLWSS
TCR beta: EPEVTQTPSHQVTQMGQEVILRCVPISNHLYFYWYRQILGQKVEFLVSFYNNEISEKSEIFDDQFSVERPDGSNFTLKIRSTKLEDSAMYFCASRGGGEQYFGPGTRLTVTEDLKNVFPPEVAVFEPSEAEISHTQKATLVCLATGFYPDHVELSWWVNGKEVHSGVSTDPQPLKEQPALNDSRYCLSSRLRVSATFWQNPRNHFRCQVQFYGLSENDEWTQDRAKPVTQIVSAEAWGRADCGFTSESYQQGVLSATILYEILLGKATLYAVLVSALVLMAMVKRKDSRG
Consider B1, for which the values for the EC50 of CD69 expression of TCR-transduced cells after co-incubation with target cells loaded with graded peptide concentrations in test [1] and in test [2] were 77 nM and 45 nM, respectively.

B2: TCR1 (TCR, V domains shown)
Valpha: KQEVTQIPAALSVPEGENLVLNCSFTDSAIYNLQWFRQDPGKGLTSLLLIQSSQREQTSGRLNASLDKSSGRSTLYIAASQPGDSATYLCAVNSYSGAGSYQLTFGKGTKLSVIP
Vbeta: EPEVTQTPSHQVTQMGQEVILRCVPISNHLYFYWYRQILGQKVEFLVSFYNNEISEKSEIFDDQFSVERPDGSNFTLKIRSTKLEDSAMYFCASRGGGEQYFGPGTRLTVT
Consider B2, for which the binding result in test [3], in test [4] and in test [5] was “recognises” in each case. Also, the values for the EC50 of peptide in test [6] and in test [7] were about 77 nM and about 45 nM, respectively.
